Reference: article PMC9850050, “A transaminase with β-activity from Variovorax boronicumulans for the production of enantiopure β-amino acids” (Heliyon, 2022)

Assays:
[1] = target: T1, VboTA (Variovorax boronicumulans ω-transaminase) (Variovorax boronicumulans, UniProt Z9A1T7NCF1); experiment: activity at varied substrate concentration; type: biochemical; conditions: substrate inhibition; pH 9, 30 °C
T1 construct: full length, 433 aa, C-terminal His-tag (pET21b, NdeI/XhoI), codon-optimised, E. coli BL21(DE3), Ni-NTA

CC(C)C(N)CC(=O)O = experiment: purified protein; conditions: 5.2 mM 2-oxoglutarate, 0.1 mM PLP, 100 mM potassium borate pH 9, 30 °C, donor 2-10 mM
Source text: (§1) glutamate quantification, Lineweaver-Burk on VboTA (Variovorax boronicumulans ω-transaminase)
CC(N)CC(=O)O = experiment: purified protein; conditions: 5.2 mM 2-oxoglutarate, 0.1 mM PLP, 100 mM potassium borate pH 9, 30 °C, donor 2-10 mM
Source text: as §1
NC(CC(=O)O)Cc1ccccc1 = experiment: purified protein; conditions: 5.2 mM 2-oxoglutarate, 0.1 mM PLP, 100 mM potassium borate pH 9, 30 °C, donor 2-10 mM
Source text: as §1
NC(CC(=O)O)c1ccccc1 = experiment: purified protein; conditions: 5.2 mM 2-oxoglutarate, 0.1 mM PLP, 100 mM potassium borate pH 9, 30 °C, donor 2-10 mM, Km above tested range
Source text: as §1
O=C(O)CCC(=O)C(=O)O = experiment: purified protein; conditions: 10 mM β-phenylalanine, 0.1 mM PLP, 100 mM potassium borate pH 9, 30 °C, 2-8 mM 2-oxoglutarate
Source text: as §1

T1 sequence (Z9A1T7NCF1 1-433): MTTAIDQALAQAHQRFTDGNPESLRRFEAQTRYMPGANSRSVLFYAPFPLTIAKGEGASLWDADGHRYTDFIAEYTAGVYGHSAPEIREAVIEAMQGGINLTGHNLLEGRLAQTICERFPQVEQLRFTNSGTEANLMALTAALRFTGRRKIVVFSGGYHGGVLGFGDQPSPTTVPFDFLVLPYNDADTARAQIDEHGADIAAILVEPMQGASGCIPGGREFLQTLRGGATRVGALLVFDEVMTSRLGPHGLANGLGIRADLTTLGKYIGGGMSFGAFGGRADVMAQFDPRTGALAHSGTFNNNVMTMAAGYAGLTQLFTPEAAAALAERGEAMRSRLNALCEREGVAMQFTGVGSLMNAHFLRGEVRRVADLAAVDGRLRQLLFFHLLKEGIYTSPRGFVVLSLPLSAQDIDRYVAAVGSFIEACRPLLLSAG

**Q.** For `O=C(O)CCC(=O)C(=O)O` [2-Oxoglutaric acid], which “loss of activity at 20 mM” value [1] is on record?
**A.** Its value is ~ 70%.

**Q.** With “VboTA (Variovorax boronicumulans ω-transaminase) (Variovorax boronicumulans)” as the compound, how does the Km (CC(C)C(N)CC(=O)O) read?
**A.** Its Km is 44.7 ± 1.2 mM.

**Q.** What about the Vmax (CC(C)C(N)CC(=O)O) of the same compound?
**A.** The Vmax was 48.5 µmol/min.

**Q.** What about the kcat (CC(C)C(N)CC(=O)O) of the same compound?
**A.** The kcat was 66.5 ± 7.1 s⁻¹.

**Q.** And the kcat/Km (CC(C)C(N)CC(=O)O)?
**A.** The kcat/Km was 1500 ± 200 M⁻¹ s⁻¹.

**Q.** What about the Km (CC(N)CC(=O)O) of the same compound?
**A.** The Km was 4.4 ± 0.3 mM.

**Q.** What about the Vmax (CC(N)CC(=O)O) of the same compound?
**A.** The Vmax was 1.4 µmol/min.

**Q.** And the kcat (CC(N)CC(=O)O)?
**A.** Its kcat is 2 ± 0.2 s⁻¹.

**Q.** And the kcat/Km (CC(N)CC(=O)O)?
**A.** The kcat/Km was 450 ± 50 M⁻¹ s⁻¹.

**Q.** What about the Km (NC(CC(=O)O)Cc1ccccc1) of the same compound?
**A.** Its Km is 0.7 ± 0.2 mM.

**Q.** What about the Vmax (NC(CC(=O)O)Cc1ccccc1) of the same compound?
**A.** The Vmax was 1.1 µmol/min.

**Q.** And the kcat (NC(CC(=O)O)Cc1ccccc1)?
**A.** The kcat was 1.6 ± 0.07 s⁻¹.

**Q.** What about the kcat/Km (NC(CC(=O)O)Cc1ccccc1) of the same compound?
**A.** The kcat/Km was 2200 ± 100 M⁻¹ s⁻¹.

**Q.** And the Km (NC(CC(=O)O)c1ccccc1)?
**A.** Its Km is 24.7 ± 3.8 mM.

**Q.** And the Vmax (NC(CC(=O)O)c1ccccc1)?
**A.** Its Vmax is 20.5 µmol/min.

**Q.** And the kcat (NC(CC(=O)O)c1ccccc1)?
**A.** The kcat was 28.1 ± 3.3 s⁻¹.

**Q.** What about the kcat/Km (NC(CC(=O)O)c1ccccc1) of the same compound?
**A.** Its kcat/Km is 1100 ± 100 M⁻¹ s⁻¹.

**Q.** And the Km (O=C(O)CCC(=O)C(=O)O)?
**A.** Its Km is 2.1 ± 0.4 mM.

**Q.** What about the Vmax (O=C(O)CCC(=O)C(=O)O) of the same compound?
**A.** The Vmax was 24.9 µmol/min.

**Q.** And the kcat (O=C(O)CCC(=O)C(=O)O)?
**A.** The kcat was 34.2 ± 2.7 s⁻¹.

**Q.** And the kcat/Km (O=C(O)CCC(=O)C(=O)O)?
**A.** Its kcat/Km is 16200 ± 1300 M⁻¹ s⁻¹.
